Experiment [1] addresses T1, APP-Avi-soluble human LOX-1(61-273) (human, UniProt P78380 61-273). The experiment is described as follows: SET, IgG vs soluble human LOX-1.
The target of experiment [2] is T2, human LOX-1 (full-length, on cells) (human, UniProt P78380 1-273).
T2 construct: also called huLOX-1/HEK293 cells; human LOX-1 transfected HEK293 cells
In words: flow cytometry: DiI-oxLDL binding to human LOX-1 transfected HEK293 cells. The procedure:
The huLOX-1/HEK293 cells were resuspended at 1×10⁶ cells/mL and seeded 50 μL per well into a 96-well V-bottom plate (5×10⁴ cells per well). LOX-1 or irrelevant control antibodies in assay medium (DMEM+10% FBS) were then added to the cells. Typical final antibody concentrations ranged from 0.006 μg/mL to 20 μg/mL. The cells were incubated at 37° C. for 1 hour, then washed twice with warm HBSS. Dil-oxLDL (human dil-labeled “High Oxidized” LDL, Kalen Biomedical, catalog number 770262-9; Dil is 1,1′-dioctadecyl-3,3,3′,3′-tetramethylindocarbocyanine perchlorate) in 50 ul assay medium was then added to a final concentration 30 to 100 μg/mL. The cells were then incubated at 37° C. for 2 hours, and then washed twice with FACS buffer (2% FBS in PBS). Cells were then analyzed for intensity of Di-I fluorescence by flow cytometry, as depicted in FIGS. 2A-2B and Table 3.
A general note: In flow cytometry, cells or beads pass a laser one at a time.

For experiment [3], the target named is T1, APP-Avi-soluble human LOX-1(61-273). The experiment is described as follows: competition ELISA: oxLDL binding to plate-bound biotinylated human sLOX-1. The procedure:
NeutrAvidin 384 well plates were coated with 2.5 μg/ml biotinylated LOX-1 diluted in PBS. After blocking with 25% Block Ace (AbD Serotec, Cat#BUF029) in PBS, purified Fabs or IgGs diluted in PBS/1% BSA were added. Subsequently OxLDL (copper-sulfate oxidized LDL, Kalen Biomedical #770202) or MDA-LDL (Academy Biomedical, #20P-UMD-L102) ligand diluted in PBS/1% BSA were allowed to bind to coated LOX-1. Secondary antibody (HRP conjugated sheep anti ApoB IgG; The Binding Site) diluted 1:1,000 in PBS/1% BSA was added followed by addition of TMB substrate (Thermo Scientific). After 10 minutes 1M H2SO4 was added and absorbance was determined at 450 nm. During early screenings, Fab fragments were also tested in this oxLDL binding assay using Fab-containing crude E. coli lysates.
The ability of LOX-1 antibodies to inhibit oxLDL binding to LOX-1 protein was determined using the method described in Example 4. In addition to “high binding OxLDL” from Kalen Biomedical (catalog number 770212-7), which is generated by copper sulfate mediated oxidation of LDL, two other forms of modified LDL were tested in this assay: malondialdehyde modified LDL (Academy Bio-Medical Co. catalog number 20P-MD-L105) and hypochlorite modified LDL. Hypochlorite modified LDL was prepared according to the following procedure. Human LDL (Kalen Biomedical catalog number 770200-4) was diluted with PBS to a final concentration of 0.25 mg/mL. Sodium hypochlorite (NaOCI, JT Baker catalog number 9416-01) was then added to 0.1 mM final concentration. The solution was incubated at room temperate for 4 hours, then quenched by adding L-methionine to a final concentration of reaction by adding 5 μl of 100 mM Mehionine per 200 μl total volume.
For orientation: ELISA stands for enzyme-linked immunosorbent assay.

Experiment [4] addresses T3, APP-Avi-soluble cynomolgus monkey LOX-1(61-273) (cynomolgus monkey).
T3 construct: Non-biotinylated as titrated antigen in SET, biotinylated for capture on the plate; also called cyno sLOX-1; cynomolgus monkey soluble LOX-1
In words: SET, IgG vs soluble cynomolgus LOX-1. The method, then:
(§1) Affinity determination for anti-LOX-1 IgGs using Solution Equilibrium Titration (SET) was basically performed as described in the literature (Friguet et al., 1985 J Immunol Methods 77: 305-319). The assays were performed in a 96-well polypropylene plate (Thermo Scientific, Catalog no. AB-1127) using a constant concentration of LOX-1 antibody mixed with different concentrations of non-biotinylated human or cynomolgus monkey LOX-1 protein and incubated at 22° C. for 14 hours with constant shaking (300 rpm).
(§2) On a pre-blocked MSD plate (Meso Scale Discovery, catalog no. L21SA) biotinylated human or cynomolgus monkey soluble LOX-1 protein was immobilized and washed afterwards. The equilibrium binding reactions were then applied to the MSD plate with immobilized LOX-1 and incubated for 30 min. The unbound material was removed by washing the plate, and the captured antibody was detected by adding Sulfo-tagged goat anti-human IgG (Meso Scale Discovery, catalog no. R3AJ-1). After incubation and washing 1×MSD read buffer T(Meso Scale Discovery, catalog no. R92TC-2) was added and the plate was developed using a Sector Imager 6000 (Meso Scale Discovery). The data were transferred to Excel for analysis and plotted using GraphPad Prism v5. The KD values were determined by fitting the data to the following equation: […]

The target of experiment [5] is T2, human LOX-1 (full-length, on cells). The experiment is described as follows: cell-based or functional assay.
Experiment [6] has as its target T1, APP-Avi-soluble human LOX-1(61-273). In words: competition ELISA: AGE-BSA binding to plate-bound biotinylated human sLOX-1. The method, then: Purified APP-Avi-soluble human soluble LOX-1(61-273) protein prepared as described in Example 1 was biotinylated as described in Example 5. NeutrAvidin 384 well plates were coated with 5 μg/ml biotinylated LOX-1 diluted in bicarbonate buffer (Thermo Scientific). After blocking with PBS/2% BSA/0.1% Tween20/0.1% TritonX-100, purified Fabs or IgGs diluted in PBS/2% BSA/0.1% Tween20/0.1% TritonX-100 were added. Subsequently AGE-BSA ligand (R&D Systems, #BT4127) diluted in PBS/2% BSA/0.1% Tween20/0.1% TritonX-100 was allowed to bind to coated LOX-1. Streptavidin-HRP (R&D Systems) diluted 1:200 in PBS/2% BSA/0.1% Tween20/0.1% TritonX-100 was added followed by addition of TMB substrate (Thermo Scientific). After 10 minutes 1M H₂SO₄ was added and absorbance was determined at 450 nm. Assay performance was affected by the type of BSA used for blocking and diluent solutions. For optimal assay performance, BSA from Sigma (catalog #A4503) was used.

The target is the same in experiment [7]. In words: SET, IgG vs soluble human LOX-1. The method, then:
as §1, §2
This is another data set of the same source.

Where two headings read alike, the source gives them in different places.

The IC50 is the point on the concentration scale where inhibition reaches its midpoint.

T3 sequence (chain, as listed by the source limits assumed): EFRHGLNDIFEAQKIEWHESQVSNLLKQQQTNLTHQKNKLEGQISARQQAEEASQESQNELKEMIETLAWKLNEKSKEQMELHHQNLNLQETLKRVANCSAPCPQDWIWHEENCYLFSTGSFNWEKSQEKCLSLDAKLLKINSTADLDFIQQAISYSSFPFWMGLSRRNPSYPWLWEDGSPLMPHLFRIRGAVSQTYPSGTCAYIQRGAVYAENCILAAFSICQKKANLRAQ

B1: MOR22029 (antibody, human IgG1, lambda, L234A L235A)
heavy: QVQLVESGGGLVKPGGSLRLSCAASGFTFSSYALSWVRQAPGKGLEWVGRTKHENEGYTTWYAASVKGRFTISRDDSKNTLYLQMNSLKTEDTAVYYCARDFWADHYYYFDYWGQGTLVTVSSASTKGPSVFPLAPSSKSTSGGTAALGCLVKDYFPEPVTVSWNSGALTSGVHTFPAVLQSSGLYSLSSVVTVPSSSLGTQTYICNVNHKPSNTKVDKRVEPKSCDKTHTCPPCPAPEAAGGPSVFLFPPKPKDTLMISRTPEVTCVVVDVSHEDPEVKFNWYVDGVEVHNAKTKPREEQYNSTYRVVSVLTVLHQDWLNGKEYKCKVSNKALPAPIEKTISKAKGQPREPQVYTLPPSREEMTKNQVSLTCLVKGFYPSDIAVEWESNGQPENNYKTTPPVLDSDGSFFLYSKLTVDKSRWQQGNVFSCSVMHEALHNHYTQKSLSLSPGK
light: QSALTQPASVSGSPGQSITISCTGTSSDVGYINYVNWYQQHPGKAPKLMIYEVSNRPSGVSNRFSGSKSGNTASLTISGLQAEDEADYYCASWDWYDNVVFGGGTKLTVLGQPKAAPSVTLFPPSSEELQANKATLVCLISDFYPGAVTVAWKADSSPVKAGVETTTPSKQSNNKYAASSYLSLTPEQWKSHRSYSCQVTHEGSTVEKTVAPTECS
notes: Human IgG1f LALA; also called MOR022029; MOR20229
With B1, the Kd in experiment [1] came to 10 pM; in experiment [4] it was 7 pM. In addition, the IC50 in experiment [2] was 400 pM; in experiment [3], 4000 pM. The “Inhibition of ROS generation (IC50, nM)” value in experiment [5] was determined as 2.2 nM.

B2: MOR021453 (antibody, human IgG1, lambda, L234A L235A)
heavy: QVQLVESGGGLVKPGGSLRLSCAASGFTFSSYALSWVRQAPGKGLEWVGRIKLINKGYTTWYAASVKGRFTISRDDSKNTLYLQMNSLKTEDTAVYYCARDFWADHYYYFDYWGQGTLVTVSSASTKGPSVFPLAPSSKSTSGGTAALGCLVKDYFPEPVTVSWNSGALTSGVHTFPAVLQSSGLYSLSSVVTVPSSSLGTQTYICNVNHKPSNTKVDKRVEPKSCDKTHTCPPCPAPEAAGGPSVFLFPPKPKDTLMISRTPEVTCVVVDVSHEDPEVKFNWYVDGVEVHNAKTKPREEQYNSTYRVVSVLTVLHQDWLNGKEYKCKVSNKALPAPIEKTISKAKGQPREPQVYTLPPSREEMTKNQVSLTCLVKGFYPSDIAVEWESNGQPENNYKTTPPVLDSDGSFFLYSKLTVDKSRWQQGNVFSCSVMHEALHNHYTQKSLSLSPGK
light: DIALTQPASVSGSPGQSITISCTGTSSDVGYINYVNWYQQHPGKAPKLMIYEVSNRPSGVSNRFSGSKSGNTASLTISGLQAEDEADYYCASWDWYDNVVFGGGTKLTVLGQPKAAPSVTLFPPSSEELQANKATLVCLISDFYPGAVTVAWKADSSPVKAGVETTTPSKQSNNKYAASSYLSLTPEQWKSHRSYSCQVTHEGSTVEKTVAPTECS
notes: also called MOR21453
B2: the Kd in experiment [1] worked out at 4 pM; in experiment [4], 7 pM; in experiment [7], 4 pM. Besides, the IC50 in experiment [6] amounted to 1600 pM; in experiment [3], 2600 pM.

B3: MOR22030 (antibody, human IgG1, lambda, L234A L235A)
heavy: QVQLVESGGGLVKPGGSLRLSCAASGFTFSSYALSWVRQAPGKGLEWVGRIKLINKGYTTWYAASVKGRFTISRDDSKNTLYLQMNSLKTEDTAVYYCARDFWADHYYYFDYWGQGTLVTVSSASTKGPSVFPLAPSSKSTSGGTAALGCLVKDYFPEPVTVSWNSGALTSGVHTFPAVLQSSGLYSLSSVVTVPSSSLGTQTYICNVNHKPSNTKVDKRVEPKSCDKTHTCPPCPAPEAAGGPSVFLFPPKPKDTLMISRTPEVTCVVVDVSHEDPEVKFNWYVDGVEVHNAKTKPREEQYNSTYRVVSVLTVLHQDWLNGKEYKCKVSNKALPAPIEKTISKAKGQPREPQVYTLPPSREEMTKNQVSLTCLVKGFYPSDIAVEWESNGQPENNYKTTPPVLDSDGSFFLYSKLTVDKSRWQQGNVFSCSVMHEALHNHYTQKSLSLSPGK
light: QSALTQPASVSGSPGQSITISCTGTSSDVGYINYVNWYQQHPGKAPKLMIYEVSNRPSGVSNRFSGSKSGNTASLTISGLQAEDEADYYCASWDWYDNVVFGGGTKLTVLGQPKAAPSVTLFPPSSEELQANKATLVCLISDFYPGAVTVAWKADSSPVKAGVETTTPSKQSNNKYAASSYLSLTPEQWKSHRSYSCQVTHEGSTVEKTVAPTECS
notes: Human IgG1f LALA; also called MOR022030; MOR20230
As to B3, the Kd is 4 pM in experiment [1] and 7 pM in experiment [4]. For the same molecule, the figures for the IC50 in experiment [2] and in experiment [3] were 500 pM and 6000 pM, respectively. Further, the “Inhibition of ROS generation (IC50, nM)” value in experiment [5] is 2.5 nM.

B4: MOR021460 (antibody, human IgG1, lambda, L234A L235A, V domains shown)
VH: QVQLLESGGGLVQPGGSLRLSCAASGFTFSDYALHWVRQAPGKGLEWVSVISYQGGFIYYADSVKGRFTISRDNSKNTLYLQMNSLRAEDTAVYYCARSPGLTSYHDSWGQGTLVTVSS
VL: DIVLTQPPSVSGAPGQRVTISCSGSSSNIGSNYVSWYQQLPGTAPKLLIHSNSHRPSGVPDRFSGSKSGTSASLAITGLQAEDEADYYCQSWDYESERVVFGGGTKLTVLG
notes: also called MOR21460
Regarding B4, the Kd in experiment [1] turned out to be 0.3 pM; in experiment [4], 0.7 pM; in experiment [7], 0.3 pM. Besides, the results for the IC50 in experiment [6] and in experiment [3] were 2100 pM and 4000 pM, respectively.

B5: MOR022025 (antibody, human IgG1, lambda, L234A L235A, V domains shown)
VH: QVQLLESGGGLVQPGGSLRLSCAASGFTFSDYALHWVRQAPGKGLEWVSVISYQGGFIYYADSVKGRFTISRDNSKNTLYLQMNSLRAEDTAVYYCARSPGLTSYHDSWGQGTLVTVSS
VL: QSVLTQPPSVSGAPGQRVTISCSGSSSNIGSNYVSWYQQLPGTAPKLLIHSTSHRPSGVPDRFSGSKSGTSASLAITGLQAEDEADYYCQSWDYESERVVFGGGTKLTVLG
notes: Human IgG1f LALA; also called MOR20225; MOR020225
B5: the figures for the Kd in experiment [1] and in experiment [4] were 0.3 pM and 0.7 pM, respectively. Also, the IC50 in experiment [2] came to 1000 pM; in experiment [3] it was 11000 pM. The “Inhibition of ROS generation (IC50, nM)” value in experiment [5] was found to be 4.6 nM.

B6: MOR22028 (antibody, human IgG1, lambda, L234A L235A, V domains shown)
VH: QVQLLESGGGLVQPGGSLRLSCAASGFTFSDYALHWVRQAPGKGLEWVSVISYAGGFKFYADSVKGRFTISRDNSKNTLYLQMNSLRAEDTAVYYCARSPGLTSYHDSWGQGTLVTVSS
VL: QSVLTQPPSVSGAPGQRVTISCSGSSSNIGSNYVSWYQQLPGTAPKLLIHSSSHRPSGVPDRFSGSKSGTSASLAITGLQAEDEADYYCQSWDYESERVVFGGGTKLTVLG
notes: Human IgG1f LALA; also called MOR022028; MOR20228
On to B6, for which the Kd in experiment [1] was determined as 0.6 pM; in experiment [4] it was 0.5 pM. For the same molecule, the IC50 came to 700 pM in experiment [2] and 9000 pM in experiment [3]. Besides, in experiment [5], the “Inhibition of ROS generation (IC50, nM)” value was 3.5 nM.

B7: MOR021468 (antibody, human IgG1, lambda, L234A L235A, V domains shown)
VH: QVQLLESGGGLVQPGGSLRLSCAASGFTFSDYALHWVRQAPGKGLEWVSVISYAGGFKFYADSVKGRFTISRDNSKNTLYLQMNSLRAEDTAVYYCARSPGLTSYHDSWGQGTLVTVSS
VL: DIVLTQPPSVSGAPGQRVTISCSGSSSNIGSNYVSWYQQLPGTAPKLLIHSNSHRPSGVPDRFSGSKSGTSASLAITGLQAEDEADYYCQSWDYESERVVFGGGTKLTVLG
notes: also called MOR21468
With B7, the Kd in experiment [1] was 0.65 pM; in experiment [4], 0.5 pM; in experiment [7], 0.6 pM. For the same molecule, the IC50 in experiment [6] stood at 2400 pM; in experiment [3] it was 4800 pM.

B8: MOR22031 (antibody, human IgG1, kappa, L234A L235A, V domains shown)
VH: QVQLVQSGAEVKKPGSSVKVSCKASGGTFSDYAISWVRQAPGQGLEWMGGIMPISGAPYYAQKFQGRVTITADESTSTAYMELSSLRSEDTAVYYCARDSSTSYYYYFDYWGQGTLVTVSS
VL: DIQMTQSPSSLSASVGDRVTITCRASQDISSWLAWYQQKPGKAPKLLIYQASNLQSGVPSRFSGSGSGTDFTLTISSLQPEDFATYYCQQIDHTPFTFGQGTKVEIKR
notes: Human IgG1f LALA; also called MOR022031; MOR20231
As to B8, the Kd in experiment [1] amounted to 3 pM; in experiment [4] it was 4 pM. For the same molecule, the concentration for half-maximal inhibition (IC50) in experiment [2] came out at 800 pM; in experiment [3] it was 4000 pM. Besides, the “Inhibition of ROS generation (IC50, nM)” value in experiment [5] was 1.9 nM.

B9: MOR22034 (antibody, human IgG1, kappa, L234A L235A, V domains shown)
VH: QVQLVQSGAEVKKPGSSVKVSCKASGGTFSDYAISWVRQAPGQGLEWMGGIVPIVGTANYAQKFQGRVTITADESTSTAYMELSSLRSEDTAVYYCARDSSTSYYYYFDYWGQGTLVTVSS
VL: DIQMTQSPSSLSASVGDRVTITCRASQDISSWLAWYQQKPGKAPKLLIYQASNLQSGVPSRFSGSGSGTDFTLTISSLQPEDFATYYCQQMWQFPITFGQGTKVEIKR
notes: Human IgG1f LALA; also called MOR022034; MOR20234
B9: the Kd in experiment [1] and in experiment [4] was 5 pM in each case. Further, the IC50 in experiment [2] is 600 pM; in experiment [3], 10000 pM. The “Inhibition of ROS generation (IC50, nM)” value in experiment [5] was 1.6 nM.

The values above are taken from patent US20170260272A1 (Novartis, published 2017).
